From PMC9982066, “Inhibition of Ehrlichia chaffeensis infection by cell-permeable macrocyclic peptides that bind type IV secretion effector Etf-1” (PNAS Nexus, 2023) come the findings set out here.

Starred links: 1 amine or outer side, 2 acyl side, 3 side chain; linkers in the order of their positions; H or OH if unused. Positions of bridges follow the written chain, without caps; N, C: chain ends. Non-standard residues stand in square brackets, D forms with d. No end group written: not given here. Trimesoyl = O=C(c1cc(C(=O)[*:2])cc(C(=O)[*:3])c1)[*:1]; Phe(3,4-Cl2) = N[C@@H](Cc1ccc(Cl)c(Cl)c1)C(=O)O; Phe(4-CF3) = N[C@@H](Cc1ccc(C(F)(F)F)cc1)C(=O)O; Phe(3-Cl) = N[C@@H](Cc1cccc(Cl)c1)C(=O)O; Phe(4-Cl) = N[C@@H](Cc1ccc(Cl)cc1)C(=O)O; Phe(4-F) = N[C@@H](Cc1ccc(F)cc1)C(=O)O; Phe(4-Me) = Cc1ccc(C[C@H](N)C(=O)O)cc1; 2Nal = N[C@@H](Cc1ccc2ccccc2c1)C(=O)O; d1Nal = N[C@H](Cc1cccc2ccccc12)C(=O)O; d2Nal = N[C@H](Cc1ccc2ccccc2c1)C(=O)O; βAsp = O=C(O)[C@H](CC(=O)[*:2])N[*:1]; hPhe = N[C@@H](CCc1ccccc1)C(=O)O; Phg = N[C@H](C(=O)O)c1ccccc1; Nle = CCCC[C@H](N)C(=O)O; Dap = NC[C@H](N)C(=O)O; TMA = not defined here; βAla = NCCC(=O)O Bounds are passed on as bounds.

Usually Kd stands for the concentration at which binding is half-saturated.

B1: FAM-labeled macrocyclic peptide B7-133-8 (peptide)
chain: Y[d2Nal]Q[D‑beta‑homoalanine][dP][dL][Dap][Phe(4-Cl)][d2Nal][dR]R[dR]R[Dap]-{βAla-βAla-Lys(FAM)}
modifications: linker 7-14 via TMA; reading uncertain; also: TMA third attachment point not given here
B2: FAM-labeled macrocyclic peptide B7-133-3 (peptide)
chain: Y[dF]D[Nle][dN][dL][Dap][Phe(4-Cl)][d2Nal][dR]R[dR]R[Dap]-{βAla-βAla-Lys(FAM)}
modifications: linker 7-14 via TMA; reading uncertain; also: TMA third attachment point not given here
B3: FAM-labeled macrocyclic peptide B7 (peptide)
chain: YHQ[dP]S[dL][Dap]F[d2Nal][dR]R[dR]R[Dap]-{βAla-βAla-Lys(FAM)}
modifications: linker 7-14 via TMA; reading uncertain; also: TMA third attachment point not given here
B4: FAM-labeled macrocyclic peptide B7-131-1 (peptide)
chain: Y[dN][d2Nal]S[Phg][dL][dL][Dap][Phe(4-Cl)][d2Nal][dR]R[dR]R[Dap]-{βAla-βAla-Lys(FAM)}
modifications: linker 8-15 via TMA; reading uncertain; also: TMA third attachment point not given here
B5: FAM-labeled macrocyclic peptide B7-131-5 (peptide)
chain: YH[dP][d2Nal]DA[dL][Dap][Phe(4-Cl)][d2Nal][dR]R[dR]R[Dap]-{βAla-βAla-Lys(FAM)}
modifications: linker 8-15 via TMA; reading uncertain; also: TMA third attachment point not given here
B6: FAM-labeled macrocyclic peptide B7-133-9 (peptide)
chain: Y[dV][dL][dY][Phe(4-F)][dL][Dap][Phe(4-Cl)][d2Nal][dR]R[dR]R[Dap]-{βAla-βAla-Lys(FAM)}
modifications: linker 7-14 via TMA; reading uncertain; also: TMA third attachment point not given here
B7: FAM-labeled macrocyclic peptide B7-131-4 (peptide)
chain: Y[Phe(4-F)]D[Phg][dY][βAsp][dL][Dap][Phe(4-Cl)][d2Nal][dR]R[dR]R[Dap]-{βAla-βAla-Lys(FAM)}
modifications: linker 8-15 via TMA; reading uncertain; also: TMA third attachment point not given here
B8: macrocyclic peptide B13, FAM-labelled (peptide)
chain: [dE]H[dF][dE]HA[Dap][dF][2Nal]R[dR]R[Dap]-{βAla-βAla-Lys(FAM)}
modifications: linker 7-13 via TMA; reading uncertain; also: TMA third attachment point not given here
B9: macrocyclic peptide B17, FAM-labelled (peptide)
chain: [Phg][dF]GDY[Dap]F[d2Nal][dR]R[dR]R[Dap]-{βAla-βAla-Lys(FAM)}
modifications: linker 6-13 via TMA; reading uncertain; also: TMA third attachment point not given here
B10: macrocyclic peptide B7-1, FAM-labelled (peptide)
chain: YHQ[dP]S[dA][Dap]F[d2Nal][dR]R[dR]R[Dap]-{βAla-βAla-Lys(FAM)}
modifications: linker 7-14 via TMA; reading uncertain; also: TMA third attachment point not given here
B11: macrocyclic peptide B7-10, FAM-labelled (peptide)
chain: YHQ[dP]S[dL][Dap]F[d2Nal][dR]A[dR]R[Dap]-{βAla-βAla-Lys(FAM)}
modifications: linker 7-14 via TMA; reading uncertain; also: TMA third attachment point not given here
B12: macrocyclic peptide B7-11, FAM-labelled (peptide)
chain: YHQ[dP]S[dL][Dap]F[d2Nal][dR]R[dA]R[Dap]-{βAla-βAla-Lys(FAM)}
modifications: linker 7-14 via TMA; reading uncertain; also: TMA third attachment point not given here

In the first experiment the target is Ehrlichia translocated factor-1 (Etf-1), recombinant 6×His-Etf-1 fusion protein (E. chaffeensis, UniProt Q2GG12 1-380). Description: fluorescence polarisation. Particulars: both partners purified. Background: In fluorescence polarisation assays a small probe gives low polarisation when free and higher when bound to something large.
As to B1, the equilibrium dissociation constant (Kd) amounted to 1.3 ± 0.1 µM.

Turning to B2, the equilibrium dissociation constant (Kd) stood at 2.4 ± 0.3 µM.

With B3, the dissociation constant Kd came out at 6.5 ± 0.7 µM.

Regarding B4, the equilibrium dissociation constant (Kd) worked out at 1.7 ± 0.2 µM.

For B5, the Kd stood at 2.9 ± 0.4 µM.

In the case of B6, the Kd was determined as 2.2 ± 0.3 µM.

Turning to B7, the equilibrium dissociation constant (Kd) is around 1.5 µM.

The target in another experiment is T1, Ehrlichia translocated factor-1 (Etf-1) (Ehrlichia chaffeensis, UniProt Q2GG12 1-380). The experiment in a line: fluorescence polarisation. The settings on record: both partners purified.
The molecule B8 registered a Kd above 25 µM.

On to B9, for which the Kd is above 25 µM.

A further experiment deals with T1, Ehrlichia translocated factor-1 (Etf-1). Description: fluorescence polarisation. Particulars: both partners purified. This is another data set of the same source.
For the molecule YHQ[dP]S[dL][Dap]F[d2Nal][dA]R[dR]R[Dap] (linker 7-14 via TMA; not fully specified (C-terminus); reading uncertain) [macrocyclic peptide B7-9, FAM-labelled], the Kd stood at 30 ± 7 µM.

YHQ[dA]S[dL][Dap]F[d2Nal][dR]R[dR]R[Dap]-{βAla-βAla-Lys(FAM)} (linker N-7-14 via Trimesoyl; not fully specified (N-terminus)) [macrocyclic peptide B7-3, FAM-labelled] gave a dissociation constant Kd of 5.8 ± 0.5 µM.

YHQ[dP]S[dL][Dap][Phe(3-Cl)][d2Nal][dR]R[dR]R[Dap]-{βAla-βAla-Lys(FAM)} (linker N-7-14 via Trimesoyl; not fully specified (N-terminus)) [macrocyclic peptide B7-17, FAM-labelled]: binding was characterised by a dissociation constant (Kd) of 3.4 ± 0.4 µM.

For YHA[dP]S[dL][Dap]F[d2Nal][dR]R[dR]R[Dap]-{βAla-βAla-Lys(FAM)} (linker N-7-14 via Trimesoyl; not fully specified (N-terminus)) [macrocyclic peptide B7-4, FAM-labelled], the Kd is 7.4 ± 0.9 µM.

With YHQ[dP]S[dL][Dap][Phe(4-CF3)][d2Nal][dR]R[dR]R[Dap]-{βAla-βAla-Lys(FAM)} (linker N-7-14 via Trimesoyl; not fully specified (N-terminus)) [macrocyclic peptide B7-20, FAM-labelled], binding was put at a Kd of 1.8 ± 0.2 µM.

B10 showed an equilibrium dissociation constant (Kd) of 18.9 ± 6.9 µM.

YHQ[dP]S[dL][Dap]F[d2Nal][dR]R[dR]A[Dap]-{βAla-βAla-Lys(FAM)} (linker N-7-14 via Trimesoyl; not fully specified (N-terminus)) [macrocyclic peptide B7-12, FAM-labelled] showed a Kd of 15 ± 2 µM.

AHQ[dP]S[dL][Dap]F[d2Nal][dR]R[dR]R[Dap] (linker 7-14 via TMA; not fully specified (C-terminus); reading uncertain) [macrocyclic peptide B7-6, FAM-labelled] returned a Kd of 11.9 ± 3.4 µM.

For YHQ[dP]S[dL][Dap][Phg][d2Nal][dR]R[dR]R[Dap]-{βAla-βAla-Lys(FAM)} (linker N-7-14 via Trimesoyl; not fully specified (N-terminus)) [macrocyclic peptide B7-14, FAM-labelled], the Kd was found to be 5.8 ± 0.9 µM.

YAQ[dP]S[dL][Dap]F[d2Nal][dR]R[dR]R[Dap]-{βAla-βAla-Lys(FAM)} (linker N-7-14 via Trimesoyl; not fully specified (N-terminus)) [macrocyclic peptide B7-5, FAM-labelled] registered an equilibrium dissociation constant (Kd) of 10.9 ± 1.5 µM.

In turn, YHQ[dP]S[dL][Dap][2Nal][d2Nal][dR]R[dR]R[Dap]-{βAla-βAla-Lys(FAM)} (linker N-7-14 via Trimesoyl; not fully specified (N-terminus)) [macrocyclic peptide B7-21, FAM-labelled] returned a Kd of 1.9 ± 0.2 µM.

YHQ[dP]S[dL][Dap][Phe(4-Me)][d2Nal][dR]R[dR]R[Dap]-{βAla-βAla-Lys(FAM)} (linker N-7-14 via Trimesoyl; not fully specified (N-terminus)) [macrocyclic peptide B7-13, FAM-labelled] yielded a Kd of 6.3 ± 0.8 µM.

YHQ[dP]S[dL][Dap][Phe(3,4-Cl2)][d2Nal][dR]R[dR]R[Dap]-{βAla-βAla-Lys(FAM)} (linker N-7-14 via Trimesoyl; not fully specified (N-terminus)) [macrocyclic peptide B7-19, FAM-labelled] displayed a Kd of 1.6 ± 0.2 µM.

Turning to YHQ[dP]S[dL][Dap][Phe(4-Cl)][3‑(3-benzothienyl)‑D‑Ala][dR]R[dR]R[Dap]-{βAla-βAla-Lys(FAM)} (linker N-7-14 via Trimesoyl; not fully specified (N-terminus)) [macrocyclic peptide B7-22, FAM-labelled], the affinity, expressed as Kd, was 5.7 ± 0.9 µM.

For the molecule YHQ[dP]S[dL][Dap][Phe(4-F)][d2Nal][dR]R[dR]R[Dap]-{βAla-βAla-Lys(FAM)} (linker N-7-14 via Trimesoyl; not fully specified (N-terminus)) [macrocyclic peptide B7-18, FAM-labelled], the Kd was 3 ± 0.5 µM.

For YHQ[dP]S[dL][Dap][Phe(4-Cl)][d1Nal][dR]R[dR]R[Dap]-{βAla-βAla-Lys(FAM)} (linker N-7-14 via Trimesoyl; not fully specified (N-terminus)) [macrocyclic peptide B7-23, FAM-labelled], the Kd was found to be 4.7 ± 0.5 µM.

In the case of YHQ[dP]A[dL][Dap]F[d2Nal][dR]R[dR]R[Dap]-{βAla-βAla-Lys(FAM)} (linker N-7-14 via Trimesoyl; not fully specified (N-terminus)) [macrocyclic peptide B7-2, FAM-labelled], binding was put at a Kd of 6.7 ± 0.8 µM.

Consider YHQ[dP]S[dL][Dap][hPhe][d2Nal][dR]R[dR]R[Dap]-{βAla-βAla-Lys(FAM)} (linker N-7-14 via Trimesoyl; not fully specified (N-terminus)) [macrocyclic peptide B7-15, FAM-labelled], for which the Kd came out at 3.4 ± 0.6 µM.

Take B11: the dissociation constant (Kd) is 30 ± 3 µM.

Consider B12, for which binding was put at a Kd of 28 ± 6 µM.
